Measurements taken from the DeepSol protein solubility set.

Experiment: soluble on expression in E. coli; label from the status in PepcDB or PDB records

Row | Sequence | soluble on expression in E. coli
1 | MAVGGGIGGLLLVGLFLLLGGNPAEIDQVLGGDQTQIESGESTGAGDFDHCQTGADANASDDCRLYYTSFSVNEMWQTLLPAQAGIEYTEPTLTLFKNSTQTGCGFASASTGPFYCPSDQDAYFDLTFFDQMRQFGAENAPLAQMYIVAHEYGHHVQNLEGTLGLSNYNDPGADSNAVKIELQADCYAGIWANHSSEGPDPLLQPITESELDSALLAASAVGDDNIQQRSGGDVNPESWTHGSSQQRKDAFLAGYNTGQMSACDFLGRGVYNDA | not soluble
2 | MDASIEKRPRTRLSPQKRKLQLMEIALEVFAKRGIGRGGHADIAEIAQVSVATVFNYFPTREDLVDDVLNFVVRQYSNFLTDHIDLDLDVKTNLQTLCKEMVKLAMTDCHWLKVWFEWSASTRDEVWPLFVSTNRTNQLLIRNMFMKAMERGELCEKHDVDNMASLFHGIFYSIFLQVNRLGEQEAVYKLADSYLNMLCIYKN | soluble
3 | MNYKSPVYNVTPIHYTKLQANNYNPNTVPATELKLLEKSIWEDGFTQPIVCYPLENSDKYEIIDGFHRYTIMQTSKRIREREKELLPVVILEKDTVNRIASTIRHNRARGFHNVELMSSIVGELADSGMSDSWIMKNIGMDANEILRLKQVSGLTHLFLDKEFSKASD | not soluble
4 | MGSDKIHHHHHHMKKAIGILCYPSVGGSGVVATELGMKLADRGHDVHFITSSIPFRLTEYRPNITVHLVEVNQYSVFKYPPYDITLASKVAEVIDLFDLDIIHAHYAVPHAVCAELGRNMAKKKGVGVVTTLHGTDITVIGQDLEMQPAIRYGIESSDAVTAVSESLALETNITLNGQYAIEVIPNSIDESMYYPMRDERLKRHYGIEPDEIVVIHISNFRPVKRIDDTIAAFAIASKDRAMRLLLVGDGPEMGQTRRRAKELGIYDKIIFAGKQEHVAQLLAISDIHLLLSEKEAFGLVVLEAMAVGVPSVVSSAGGLPEVIQDGKTGFIVPTYDVKTAADRIGKLADDAALREELAEEGIRDTRRRFDSNQVVRAYELLYERVCAQYENA | not soluble
5 | MSDDEDEGRLQIDESPSDSEDKPSISAPPPLPPPLQETPEFQTTYDAHDQAETSGKEDGELDEDDENDDIEPMEIDEEIQLEIDEKPEDLVKDEQISEPTDKMREEFLKVEKTDENAVVESTSSFSPKLIDEQDLKVEEMSDEKHAQSPVSSDMTTSKSPTPSKKENGLMKPPQSTEKAQRKRKESTDIFSSEKRKLSLETVASSSSSSGSSNLSTTPQRSKRSSSHMATIAISACFTDEDIVSVPMMPIQKTPDTAPHSKRAKRDIGTNVITTRSTDTSGLLCNEAIMDTPPGSQMTLEVTVMYRTKNSLAFRVKGCDLIGFIGDGLPPMASSLTNNIASSMGNNNNKKKTASSSGNEEGKDGRSSSASSNGRGARGGSVLKDGKGDKQKGKRKKEETNDDDLEDENQNNEQYGSKKCELVEVDVAQLHDCHYDGCEKRFQKTTDLEYHISKNHKRRVMMYESICTQTSISSLETQNNSTQIDDDLPPMPQMPILKKEVPIKTPIGNVYEDLSDDDSETKPTDLVLKTPSSSASSAVATLMGIAQVSSSTTSATTSVVPPVGAQRSTPATPVSAKIGINPSMVANALAEKNKQQQQQQQKLNQLQPPHNPSLSTAPSSSSAQPPTMIQAHPMAGVFIPPPFHPAMMNPQMAAMMDQQRIAVAMSQQQQMSRTPSRQTISVSDSHKIHELAKSRENQQRQQSATPKTPSESVSTTGVVTPQRQFLPPQMMQPGTPQSILLQQQQQQQQQQQQAAAQHQIIQQMQMQMQRGMAPQMANQELLMMMMGMPHMVQGVPGFPGVPQLPPK | soluble
6 | KAVIDIDAATKIMCSNAKAISLNEVEKNEIISKYREITAKKSERAELKEVEPIPLDWPSDLTLPPLPESTNDYVWAGKRKELDDYPRKQLIIDGLSIVIPTYNRAKILAITLACLCNQKTIYDYEVIVADDGSKENIEEIVREFESLLNIKYVRQKDYGYQLCAVRNLGLRAAKYNYVAILDCDMAPNPLWVQSYMELLAVDDNVALIGPRKYIDTSKHTYLDFLSQKSLINEIPEIITNNQVAGKVEQNKSVDWRIEHFKNTDNLRLCNTPFRFFSGGNVAFAKKWLFRAGWFDEEFTHWGGEDNEFGYRLYREGCYFRSVEGAMAYHQEPPGKENETDRAAGKNITVQLLQQKVPYFYRKKEKIESATLKRVPLVSIYIPAYNCSKYIVRCVESALNQTITDLEVCICDDGSTDDTLRILQEHYANHPRVRFISQKNKGIGSASNTAVRLCRGFYIGQLDSDDFLEPDAVELCLDEFRKDLSLACVYTTNRNIDREGNLISNGYNWPIYSREKLTSAMICHHFRMFTARAWNLTEGFNESISNAVDYDMYLKLSEVGPFKHINKICYNRVLHGENTSIKKLDIQKENHFKVVNESLSRLGIKKYKYSPLTNLNECRKYTWEKI | soluble
7 | MAHHHHHHMKCVLVVHSGGERMQRSCDLPDGVSTQEQLRAFVRSQDLRLESLDFTFAASLVRLTAGAAEKKGEKVVLREDADVQQLLKTAKQQRATHVLTFEVTISMSSSSPRNLGSFLSAEYAVDKDLVTLHVFAPLACPSRGKNPSYQEKMFIIPTRCVLESLARAVEDTLSIKLTNSGMKLVLYTMPQQPNGDQVEILYDTSALELLRQHTSQSTPGSTHLRHPYANPENYV | not soluble
8 | MLQPTPTLTDQVAGQLARAIADGAYAVGAKLPTGRALAQQYGVSAAVIREATERLRAQGLVQSRQGSGCTVVARMPAGGFQVPAGGLDRAHLARVYELRMELEGGAAALAARRRGAADLDRMRQALQALQREPIEPEQGVVHDVGFHVAIATATANPYYLQLLQYLNLQLRQAVETARANTRRQGDPVHAVHEEHLAIYRAIERGEPEAARAAAQHHLLGAAARLQLDMNL | not soluble
9 | MGSEQNDSTSFTQSQASEPKLCVKGCGFFGSPSNMDLCSKCYRGICAEEAQTAVAKAAVEKSFKPSPPRSLFIAEPPAVVVEPKPEKAAVVVVSAEPSSSAVPEANEPSRPARTNRCLCCNKKVGIMGFKCKCGSTFCGEHRYPETHDCSFDFKEVGRGEIAKANPVVKADKIQRF | soluble
10 | MNITNEREDGEKMGSKNYTDVLIAGKIYTLGGLEEETYLQQVASYLNDKIAGLHRQDGFRKQPEDYQNVMTYLNIADDYFKEREHAGLLAVQKEELEKETYRLKHELVSTQMKLEAMRAELEKYKALETLEHSRGKEAEKEEQARK | soluble
11 | MRRVFSSQAIQTAIEKSLPDLQKIVGNSSVRTQESVRRQFARDESHFIAPPPAVVLEPTNVEQVSEILKLCNDRAIPVVPFGTGTGLEGGSMSTLGGICISTQQIIGDPVLREQDFVCSVKPSTTRIALNDAIKNSGLFFPVDPGADASVCGMVATSASGTNAIRYGTMKENVVNLEVVLADGTIIDTKGKGRCPRKSSAGFNFTELFVGSEGTLGIITEATVKVHPRPQFLSAAVCSFPTVHEAASTVVEVLQWNIPVARIELLDTVQIQACNSYSSLNLRESPTLFIEFHGSNEKEVADQTSAVEDICKSHEALDFDSGASPDKRATLWKARHNAYYAALAMRTGARGFTTDVCVPISKLADVISETRSDLDEHEILGTVVGHVGDGNFHVILPTIEEDKTEHRKIQSFSDRLVRRALAADGTCTGEHGIGLGKRKYLREELGENTVRLMHTIKHALDPNNIMNPGKVLPEL | soluble
12 | MSFTPELNMAVCEFNLDSGCNAKESLIEMANNKISLETFKEHNIKALTMKYVNSESMMWEARKIVRIISRLEADEHQSRVAPKRSRSPGSTSPSASNSSSSSSELSFDMFSSKRTVPMKVTSKPKRVIAQASRTMKPHQQESRQESAEKDRANDEKLKKFIESRKLKEQAKKAANIQKCNEVKEAVMFPAKRMKKRQLEQYAYRFK | not soluble
13 | MTETKDKQLSRIVLKGFKSIAKCDLEISRVNILIGANGAGKSNFIGFFRMVGQLVEENLQVFVSRQGSPDALLHFGRKTTEHLEFQLYFGNNGYFATLEPTQDNRLMFARESFWWNMSGEHEIGRGHFETKVLTSTRTGIDEYVLSAMQQWRVYHFHDTSESAYIKQPHGINDNAYLRPDARNLASFLYLLRNSYPASYQRIVKTIRLVAPFFGDFYLRPAPQNKEVIELEWFERGQDIPFKAYLLSDGTLRFMCLATVFLQPEDLQPETILVDEPELGLHPYAITVLASLMRTASKQVIVSTQSIELLNQFEAKDVIVVDRSEGSSYLRRLNQGDRIHFTGYSLLEHHHHHH | soluble
14 | NDSLVLFSTDLKLLWANRSAEHLYGDYVEQLVGQEFTSLKGARGIPSDAIAVRASLGSGEPCYERVSAADGRIWDMKYFPVRGED | not soluble
